Here are results for four molecules from patent publication US5719039A, “Enzyme-surfactant ion-pair complex catalyzed reactions in organic solvents” (University of Iowa Research Foundation, priority 1995, dated 1998).

Data set [1] has as its target CT (Bos taurus, UniProt P00766). Nature of the data set: Transesterification with CT pre-inactivated by PMSF. The data set is classed as biochemical. The settings on record: PMSF 0.3 mM. As for the experimental part: Values for kcat /Km were determined by nonlinear fit of the kinetic data and represent averages of triplicate measurements with standard deviations in each case of less than 5%. Initial rates of formation of N-acetyl-L-phenylalanine propyl ester were determined by gas chromatography (530-μm fused silica gum (Hewlett-Packard)). […] Saturation kinetics could not be determined for reactions with CT suspended in isooctane as the solubility limit for the substrate in this solvent is substantially below the Km of the enzyme.

The conditions of data set [2]: source not stated; cited from earlier work.
Data set [3] can be described thus: Extraction of enzyme from aqueous solution into isooctane containing 2 mM AOT. The data set is classed as physicochemical.
The conditions of data set [4]: source not stated; cited from earlier work. The source holds these as a separate data set.
The mark [5] stands for this setting: 1 mg/ml aqueous enzyme, pH 7.8, 2 mM CaCl2, 2 mM AOT in isooctane.

For `O=S(=O)(F)Cc1ccccc1` [phenylmethanesulfonyl fluoride], the “reaction with pre-inactivated CT” value in data set [1] is given as “No reaction was observed”.

B1: Subtilisin BPN': subtilisin BPN' (from Bacillus amyloliquefaciens) (protein, UniProt P00782 108-382, looked up)
Subtilisin BPN': AQSVPYGVSQIKAPALHSQGYTGSNVKVAVIDSGIDSSHPDLKVAGGASMVPSETNPFQDNNSHGTHVAGTVAALNNSIGVLGVAPSASLYAVKVLGADGSGQYSWIINGIEWAIANNMDVINMSLGGPSGSAALKAAVDKAVASGVVVVAAAGNEGTSGSSSTVGYPGKYPSVIAVGAVDSSNQRASFSSVGPELDVMAPGVSIQSTLPGNKYGAYNGTSMASPHVAGAAALILSKHPNWTNTQVRSSLENTTTKLGDSFYYGKGLINVQAAAQ
On to B1, for which the pI in data set [2] is on record as 9.4. Moreover, the “Extraction Yield (enzyme in organic phase)” value (“Extraction Yield” below) in data set [3] (setting [5]) is 0.4 mg/mL. The molecule also had an extraction in data set [3] (1 mg/ml aqueous solution, pH 7.8, 2 mM AOT in isooctane) of 40%. Further, the “pH of maximal activity” value in data set [4] is given as 7.8.

B2: subtilisin Carlsberg: subtilisin Carlsberg (from Bacillus licheniformis) (protein, UniProt P00780 106-379, looked up)
Subtilisin Carlsberg: AQTVPYGIPLIKADKVQAQGFKGANVKVAVLDTGIQASHPDLNVVGGASFVAGEAYNTDGNGHGTHVAGTVAALDNTTGVLGVAPSVSLYAVKVLNSSGSGSYSGIVSGIEWATTNGMDVINMSLGGASGSTAMKQAVDNAYAKGVVVVAAAGNSGSSGNTNTIGYPAKYDSVIAVGAVDSNSNRASFSSVGAELEVMAPGAGVYSTYPTNTYATLNGTSMASPHVAGAAALILSKHPNLSASQVRNRLSSTATYLGSSFYYGKGLINVEAAAQ
With B2, the pI in data set [2] is given as 8.5. Further, the “Extraction Yield” value in data set [3] (setting [5]) was 0.3 mg/mL. Further, the “pH of maximal activity” value in data set [4] is listed as approximately 7.8.

B3: papain: papain, pI of about 8.75 and maximal activity at pH 7.8 (protein, UniProt P00784 134-345, looked up)
Papain: IPEYVDWRQKGAVTPVKNQGSCGSCWAFSAVVTIEGIIKIRTGNLNEYSEQELLDCDRRSYGCNGGYPWSALQLVAQYGIHYRNTYPYEGVQRYCRSREKGPYAAKTDGVRQVQPYNEGALLYSIANQPVSVVLEAAGKDFQLYRGGIFVGPCGNKVDHAVAAVGYGPNYILIKNSWGTGWGENGYIRIKRGTGNSYGVCGLYTSSFYPVKN
For the molecule B3, in data set [2], the pI result is listed as “about 8.75”. Besides, in data set [3] (0.5 mg/ml aqueous papain, pH 7.8, CaCl2, MnCl2, KCl, 2 mM AOT in isooctane), the “Extraction Yield” value was 0.35 mg/mL. In addition, the “pH of maximal activity” value in data set [4] is 7.8.
